Experimental data: the supplement of paper PMC10126150
± gives the standard deviation of the averaged measurements.

Test system: ATP
Assay: switch fluorescence ratio, 500 uM ATP over buffer (Cy3 cluster intensity, sum of 5 cycles each) (fold (ratio)); higher = stronger signal-on switching upon ATP binding; sequences stand for … in TCGTCGGCAGCGTCAGATGTGTATAAGAGACAGTTTTTTTTTTTTTTTTTTTTTTTTT…TC
Details: aptamer strand: ATP DNA aptamer (quencher-CACCTGGGGGAGTATTGCGGAGGAAGG + anchor), 100 nM annealed; ATP concentration: 500 uM
In short: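 Cy3-labelled switching-strand clusters on a modified Illumina MiSeq flow-cell were annealed to 100 nM quencher-labelled ATP aptamer, imaged in selection buffer, then imaged after 15 min with 500 uM ATP at 22 °C. Five buffer/ATP cycles ran, with NaOH stripping and re-annealing between them. The fluorescence ratio is summed target-cycle over summed buffer-cycle Cy3 intensity per cluster, averaged per switch-domain sequence. Clusters outside 100-1000 RFU were excluded.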
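Further: ATP exposure 15 min at 22 °C before imaging.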

| Sequence | switch fluorescence ratio |
| --- | --- |
| TTATGCGGAT | 1.02 ± 0.015 |
| TTATGCGGTT | 0.992 ± 0.02 |
| TTATGCTATG | 1.055 ± 0.0034 |
| TTATGCTATT | 1 ± 0.022 |
| TTATGCTTTT | 1.0043 ± 0.00054 |
| TTATGGATGT | 1.03 ± 0.013 |
| TTATGGGAAC | 0.97391 ± 0.00081 |
| TTATGGGAGA | 1.04 ± 0.042 |
| TTATGGGGAA | 0.987 ± 0.015 |
| TTATGGGGGA | 1.01 ± 0.018 |
| TTATGGGGGG | 1.01 ± 0.042 |
| TTATGGTGT | 1.0044 ± 0.00076 |
| TTATGTAAGG | 0.971 ± 0.014 |
| TTATGTATGT | 0.996 ± 0.017 |
| TTATGTGTTT | 1.014 ± 0.006 |
| TTATGTTGTT | 1 ± 0.018 |
| TTATTAAAAC | 0.999 ± 0.013 |
| TTATTAAAAG | 1.2 ± 0.39 |
| TTATTAAGTG | 1 ± 0.017 |
| TTATTAATCT | 0.9974 ± 0.0049 |
| TTATTAATT | 0.997 ± 0.028 |
| TTATTAGTTA | 0.988 ± 0.011 |
| TTATTATGCC | 1.02 ± 0.061 |
| TTATTATGTG | 0.946 ± 0.022 |
| TTATTATTCA | 1.008 ± 0.0047 |

| Sequence | switch fluorescence ratio |
| --- | --- |
| TTATTATTTC | 0.98 ± 0.05 |
| TTATTCAAGG | 0.99 ± 0.017 |
| TTATTCAGGA | 1.01 ± 0.029 |
| TTATTCATGT | 0.984 ± 0.011 |
| TTATTCGAGA | 1.02 ± 0.034 |
| TTATTCGGTG | 0.98 ± 0.021 |
| TTATTCGTGT | 1.01 ± 0.04 |
| TTATTCTGTT | 0.976 ± 0.047 |
| TTATTGAGTA | 1.005 ± 0.0048 |
| TTATTGCATG | 0.96 ± 0.013 |
| TTATTGCTGT | 0.989 ± 0.013 |
| TTATTGGAAA | 1.012 ± 0.0059 |
| TTATTGGGCC | 1.01 ± 0.026 |
| TTATTGGGGC | 1.01 ± 0.03 |
| TTATTGGGGT | 1.01 ± 0.013 |
| TTATTTACTA | 1.04 ± 0.011 |
| TTATTTAGCT | 1.01 ± 0.017 |
| TTATTTAGGG | 0.991 ± 0.0055 |
| TTATTTATGT | 1 ± 0.012 |
| TTATTTCGAA | 1.01 ± 0.012 |
| TTATTTCGTT | 0.989 ± 0.026 |
| TTATTTGGTA | 0.986 ± 0.044 |
| TTATTTGTTG | 0.971 ± 0.05 |
| TTATTTTAGC | 0.976 ± 0.019 |
| TTATTTTCAG | 0.996 ± 0.053 |

| Sequence | switch fluorescence ratio |
| --- | --- |
| TTATTTTTAA | 0.9809 ± 0.0038 |
| TTATTTTTCT | 1.01 ± 0.032 |
| TTATTTTTT | 1.02 ± 0.018 |
| TTCAAATATA | 1.003 ± 0.0017 |
| TTCAAATCGA | 1 ± 0.039 |
| TTCAAATGAA | 1 ± 0.016 |
| TTCAAATGGA | 0.991 ± 0.041 |
| TTCAAGGGGT | 0.994 ± 0.025 |
| TTCAAGGTGC | 1.4 ± 0.069 |
| TTCAATGAAA | 1 ± 0.054 |
| TTCAATGAGG | 0.973 ± 0.052 |
| TTCAATGGTG | 1.023 ± 0.0014 |
| TTCAATTGTT | 1.02 ± 0.017 |
| TTCACATAGC | 1.05 ± 0.1 |
| TTCACTTGGA | 1.03 ± 0.033 |
| TTCACTTGTG | 1 ± 0.018 |
| TTCAGAATTG | 1.0012 ± 0.00092 |
| TTCAGACAGG | 1.09 ± 0.02 |
| TTCAGATTGC | 0.987 ± 0.044 |
| TTCAGCAGAG | 1.41 ± 0.59 |
| TTCAGCGTCT | 0.975 ± 0.043 |
| TTCAGCTGTT | 1.01 ± 0.011 |
| TTCAGGCATG | 0.999 ± 0.04 |
| TTCAGGCTGT | 0.9811 ± 0.0054 |
| TTCAGGGGGA | 1.02 ± 0.023 |

| Sequence | switch fluorescence ratio |
| --- | --- |
| TTCAGGGTTT | 1.5 ± 0.9 |
| TTCAGGTGCC | 1.46 ± 0.04 |
| TTCAGTTTAG | 1 ± 0.031 |
| TTCAGTTTTG | 0.982 ± 0.024 |
| TTCATAGTCG | 0.98 ± 0.07 |
| TTCATCCAGC | 1.13 ± 0.07 |
| TTCATCGCTG | 1.04 ± 0.053 |
| TTCATGGAGT | 0.983 ± 0.028 |
| TTCATGGATA | 0.999 ± 0.066 |
| TTCATGGGGA | 0.985 ± 0.023 |
| TTCATGGGGT | 1.04 ± 0.033 |
| TTCATGTGAA | 1 ± 0.04 |
| TTCATTACCC | 1.028 ± 0.0082 |
| TTCATTCCGA | 1.29 ± 0.095 |
| TTCATTTACA | 1.04 ± 0.033 |
| TTCCAAGGGA | 1 ± 0.029 |
| TTCCAGGATT | 1.04 ± 0.089 |
| TTCCAGTCC | 1.06 ± 0.027 |
| TTCCATGGCC | 1.04 ± 0.044 |
| TTCCCAAATT | 1.19 ± 0.19 |
| TTCCCCATTG | 1.09 ± 0.023 |
| TTCCCCGGCA | 1.28 ± 0.35 |
| TTCCCGATCA | 1.01 ± 0.018 |
| TTCCCTGTTT | 1.01 ± 0.023 |
| TTCCCTTAAT | 1 ± 0.015 |

| Sequence | switch fluorescence ratio |
| --- | --- |
| TTCCGACCGG | 1.28 ± 0.38 |
| TTCCGATTCG | 1.09 ± 0.035 |
| TTCCGGAGGC | 1.22 ± 0.28 |
| TTCCGGGCGT | 1.12 ± 0.058 |
| TTCCGGGGAA | 1.16 ± 0.21 |
| TTCCGGTGTT | 1.05 ± 0.079 |
| TTCCGGTTGG | 1 ± 0.023 |
| TTCCTAAAGA | 1.06 ± 0.03 |
| TTCCTAAATT | 0.9979 ± 0.0034 |
| TTCCTAATGG | 1.04 ± 0.046 |
| TTCCTAATTT | 1.63 ± 0.94 |
| TTCCTCGGGT | 1.03 ± 0.014 |
| TTCCTGAAGG | 1.02 ± 0.041 |
| TTCCTGGCGG | 1.11 ± 0.1 |
| TTCCTTCT | 1.13 ± 0.11 |
| TTCCTTGCGT | 1.14 ± 0.043 |
| TTCCTTGGGA | 0.984 ± 0.014 |
| TTCCTTGTAG | 1.02 ± 0.017 |
| TTCGAAAGTT | 0.987 ± 0.026 |
| TTCGACATGT | 1.025 ± 0.0042 |
| TTCGAGCTAA | 1.2 ± 0.26 |
| TTCGAGTCGT | 1.006 ± 0.0034 |
| TTCGATAAGA | 0.999 ± 0.06 |
| TTCGATAATC | 1.15 ± 0.16 |
| TTCGATATGT | 0.984 ± 0.022 |

| Sequence | switch fluorescence ratio |
| --- | --- |
| TTCGATCCGT | 1.07 ± 0.029 |
| TTCGATTGGG | 0.95725 ± 0.00037 |
| TTCGCAGGGA | 1.074 ± 0.0042 |
| TTCGCATATT | 1.47 ± 0.26 |
| TTCGCCAGAT | 1.04 ± 0.035 |
| TTCGCGAGGT | 2.67 ± 2.3 |
| TTCGCGATGT | 1.13 ± 0.11 |
| TTCGCGTGTT | 1.003 ± 0.0055 |
| TTCGCTACGT | 1.02 ± 0.021 |
| TTCGCTAGCT | 1.03 ± 0.058 |
| TTCGGACGGT | 1.04 ± 0.06 |
| TTCGGAGCGG | 1.34 ± 0.24 |
| TTCGGATAAA | 1.01 ± 0.058 |
| TTCGGATATA | 0.9915 ± 0.0063 |
| TTCGGCAACG | 0.997 ± 0.035 |
| TTCGGCTCTC | 1.63 ± 0.86 |
| TTCGGCTTGG | 0.984 ± 0.035 |
| TTCGGCTTTT | 0.983 ± 0.024 |
| TTCGGGAAGC | 1.018 ± 0.0056 |
| TTCGGGCGCG | 0.952 ± 0.021 |
| TTCGGGGGGG | 1.01 ± 0.043 |
| TTCGGGGTCG | 0.985 ± 0.072 |
| TTCGGGGTTT | 1.02 ± 0.06 |
| TTCGGGTGCT | 1.08 ± 0.052 |
| TTCGGTGGGG | 0.9805 ± 0.0094 |

| Sequence | switch fluorescence ratio |
| --- | --- |
| TTCGGTGTTT | 1.02 ± 0.022 |
| TTCGGTTAGT | 1 ± 0.012 |
| TTCGTACCGC | 1.09 ± 0.029 |
| TTCGTACGAG | 1 ± 0.026 |
| TTCGTATAGA | 1 ± 0.041 |
| TTCGTATATA | 1.01 ± 0.018 |
| TTCGTATATC | 1.7 ± 0.93 |
| TTCGTATCAG | 1.02 ± 0.035 |
| TTCGTATCAT | 1.049 ± 0.0097 |
| TTCGTGAACG | 1 ± 0.071 |
| TTCGTGATTT | 1.02 ± 0.04 |
| TTCGTGCAGG | 1.02 ± 0.043 |
| TTCGTGTAAG | 1.02 ± 0.015 |
| TTCGTGTACA | 1.03 ± 0.026 |
| TTCGTGTATC | 0.999 ± 0.011 |
| TTCGTGTTGG | 0.973 ± 0.025 |
| TTCGTTAGCA | 1.54 ± 0.8 |
| TTCGTTATAG | 1.01 ± 0.044 |
| TTCGTTGTGG | 1.031 ± 0.0047 |
| TTCGTTTAGT | 1.039 ± 0.0026 |
| TTCGTTTATC | 1.07 ± 0.093 |
| TTCGTTTGAC | 1.03 ± 0.1 |
| TTCTAACTCA | 1.02 ± 0.029 |
| TTCTAAGGAG | 1.017 ± 0.0022 |
| TTCTAAGTA | 1.021 ± 0.0044 |

| Sequence | switch fluorescence ratio |
| --- | --- |
| TTCTAATCGG | 1.006 ± 0.01 |
| TTCTAATTTG | 0.968 ± 0.058 |
| TTCTAATTTT | 0.995 ± 0.027 |
| TTCTAGCGAA | 1.17 ± 0.22 |
| TTCTAGCTTG | 1.01 ± 0.047 |
| TTCTAGGAAT | 1.02 ± 0.059 |
| TTCTAGTTAC | 1.047 ± 0.0056 |
| TTCTATTTAA | 1.02 ± 0.029 |
| TTCTCCGGTT | 1.31 ± 0.29 |
| TTCTCGGTTT | 1.02 ± 0.025 |
| TTCTCTAGAT | 1.056 ± 0.0066 |
| TTCTCTATTT | 0.983 ± 0.028 |
| TTCTGAAGC | 3.69 ± 1 |
| TTCTGAATAT | 1.01 ± 0.024 |
| TTCTGGCACG | 1.12 ± 0.18 |
| TTCTGGGGGG | 0.991 ± 0.027 |
| TTCTGGTCTA | 0.986 ± 0.011 |
| TTCTGTGGAA | 1.04 ± 0.036 |
| TTCTGTTAAA | 1.02 ± 0.027 |
| TTCTGTTATT | 1.11 ± 0.21 |
| TTCTGTTGAC | 1.7 ± 0.95 |
| TTCTGTTTTT | 1.09 ± 0.15 |
| TTCTTAAAAA | 0.993 ± 0.026 |
| TTCTTACTGG | 0.995 ± 0.021 |
| TTCTTAGAAA | 0.991 ± 0.019 |
